The values that follow come from patent publication CN114805559A (UNIV ZHEJIANG, dated 2022).

This experiment addresses 新型冠状病毒SARS-CoV-2受体结合域RBD重组蛋白 (pET-28a(+)/RBD, E. coli Rosetta) (SARS-CoV-2, UniProt P0DTC2 319-541). Briefly: BLI (Fortebio), KD = Kdis/Kon.

B1: 全人源抗新冠病毒受体结合域单链抗体No4 (purified recombinant scFv from pET-30a(+)/anti-RBD No4 in E. coli Rosetta) (scFv, not shown: small tags and cut ends)
scFv: RSSCRNPGGALVQPGGSLRLSCETSGFTFSRYWMNWFRQAPGKGLVWVSHISNNGRVTGYADSVKGRFTISRDNAKNILYLQMSGLRAEDTSLYYCARVHNAFCNSVSCVDAFDVWGQGTTVTVSSGGGGSGGGGSGGGGSDIVMTQTPSSLSASVGDRVTITCRASQRINSLLNWYQHKPGKPPKLLIYGASTLQSGVPSRFSGSESGADFTLTISSLQPEDVGTYYCQKYNSAPHTFGQGTRLEIK
notes: also called 抗RBD单链抗体No4; 抗RBD单链重组抗体No4
For B1, the Kd turned out to be 1.61 nM.

The Kd is the constant that tells how readily two partners part at equilibrium. A higher Kd goes with a looser complex.
